# Reference: IntAct's records for PubMed 24744375
# B1: Disease resistance protein RRS1 (Arabidopsis thaliana (Mouse-ear cress)), P0DKH5 (parent)
# chain: MTNCEKDEEFVCISCVEEVRYSFVSHLSEALRRKGINNVVVDVDIDDLLFKESQAKIEKAGVSVMVLPGNCDPSEVWLDKFAKVLECQRNNKDQAVVSVLYGDSLLRDQWLSELDFRGLSRIHQSRKECSDSILVEEIVRDVYETHFYVGRIGIYSKLLEIENMVNKQPIGIRCVGIWGMPGIGKTTLAKAVFDQMSSAFDASCFIEDYDKSIHEKGLYCLLEEQLLPGNDATIMKLSSLRDRLNSKRVLVVLDDVRNALVGESFLEGFDWLGPGSLIIITSRDKQVFCLCGINQIYEVQGLNEKEARQLFLLSASIKEDMGEQNLQELSVRVINYANGNPLAISVYGRELKGKKKLSEMETAFLKLKRRPPFKIVDAFKSTYDTLSDNEKNIFLDIACFFQGENVNYVIQLLEGCGFFPHVEIDVLVDKCLVTISENRVWLHKLTQDIGREIINGETVQIERRRRLWEPWSIKYLLEYNEHKANGEPKTTFKRAQGSEEIEGLFLDTSNLRFDLQPSAFKNMLNLRLLKIYCSNPEVHPVINFPTGSLHSLPNELRLLHWENYPLKSLPQNFDPRHLVEINMPYSQLQKLWGGTKNLEMLRTIRLCHSHHLVDIDDLLKAENLEVIDLQGCTRLQNFPAAGRLLRLRVVNLSGCIKIKSVLEIPPNIEKLHLQGTGILALPVSTVKPNHRELVNFLTEIPGLSEELERLTSLLESNSSCQDLGKLICLELKDCSCLQSLPNMANLDLNVLDLSGCSSLNSIQGFPRFLKQLYLGGTAIREVPQLPQSLEILNAHGSCLRSLPNMANLEFLKVLDLSGCSELETIQGFPRNLKELYFAGTTLREVPQLPLSLEVLNAHGSDSEKLPMHYKFNNFFDLSQQVVNDFLLKTLTYVKHIPRGYTQELINKAPTFSFSAPSHTNQNATFDLQSGSSVMTRLNHSWRNTLVGFGMLVEVAFPEDYCDATDVGISCVCRWSNKEGRSCRIERKFHCWAPWQVVPKVRKDHTFVFSDVNMRPSTGEGNDPDIWAGLVVFEFFPINQQTKCLNDRFTVRRCGVRVINVATGNTSLENIALVLSLDPVEVSGYEVLRVSYDDLQEMDKVLFLYIASLFNDEDVDFVAPLIAGIDLDVSSGLKVLADVSLISVSSNGEIVMHSLQRQMGKEILHGQSMLLSDCESSMTENLSDVPKKKKKHSESRVKKVVSIPAIDEGDLWTWRKYGQKDILGSRFPRGYYRCAYKFTHGCKATKQVQRSETDSNMLAITYLSEHNHPRPTKRKALADSTRSTSSSIC
# partner: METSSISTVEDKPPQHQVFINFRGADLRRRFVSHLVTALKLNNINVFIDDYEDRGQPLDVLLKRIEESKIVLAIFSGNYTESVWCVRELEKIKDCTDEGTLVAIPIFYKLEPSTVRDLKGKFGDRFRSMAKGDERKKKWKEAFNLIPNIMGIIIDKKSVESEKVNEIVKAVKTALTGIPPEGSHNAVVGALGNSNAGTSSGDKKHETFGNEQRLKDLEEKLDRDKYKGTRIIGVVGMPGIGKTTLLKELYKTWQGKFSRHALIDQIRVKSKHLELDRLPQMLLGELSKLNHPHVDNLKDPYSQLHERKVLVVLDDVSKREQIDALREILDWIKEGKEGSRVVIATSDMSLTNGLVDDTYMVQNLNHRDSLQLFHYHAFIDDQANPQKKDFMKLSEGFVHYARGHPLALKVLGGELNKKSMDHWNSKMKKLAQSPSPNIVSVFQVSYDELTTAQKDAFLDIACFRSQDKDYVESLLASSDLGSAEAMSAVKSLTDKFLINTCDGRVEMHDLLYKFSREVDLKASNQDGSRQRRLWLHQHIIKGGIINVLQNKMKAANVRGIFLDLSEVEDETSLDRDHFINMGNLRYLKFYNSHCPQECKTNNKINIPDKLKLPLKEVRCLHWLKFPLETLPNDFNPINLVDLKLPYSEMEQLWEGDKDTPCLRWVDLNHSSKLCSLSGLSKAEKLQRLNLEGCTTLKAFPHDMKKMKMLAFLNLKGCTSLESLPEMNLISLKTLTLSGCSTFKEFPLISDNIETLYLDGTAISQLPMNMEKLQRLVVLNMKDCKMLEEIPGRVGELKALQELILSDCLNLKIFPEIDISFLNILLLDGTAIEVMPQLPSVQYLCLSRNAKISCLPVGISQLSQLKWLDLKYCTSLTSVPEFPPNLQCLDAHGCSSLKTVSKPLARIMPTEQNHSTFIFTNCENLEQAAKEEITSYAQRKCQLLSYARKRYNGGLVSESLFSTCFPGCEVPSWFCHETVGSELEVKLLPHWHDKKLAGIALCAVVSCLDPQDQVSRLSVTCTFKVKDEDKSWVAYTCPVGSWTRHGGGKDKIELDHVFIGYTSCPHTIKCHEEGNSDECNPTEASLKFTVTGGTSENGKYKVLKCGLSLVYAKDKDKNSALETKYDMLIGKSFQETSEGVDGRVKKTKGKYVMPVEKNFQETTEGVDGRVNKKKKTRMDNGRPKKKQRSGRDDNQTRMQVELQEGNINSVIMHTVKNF
# B2: Disease resistance protein RPS4 (Arabidopsis thaliana (Mouse-ear cress)), Q9XGM3 (parent)
# chain: B1 partner
# partner: B1 chain
# Variants of: B1
# Conditions: with rps4_arath RPS4, Q9XGM3
row,Variant,effect of a mutation on the interaction
1,Y101A,disrupting interaction strength
2,D103A,disrupting interaction strength
3,D103R,disrupting interaction strength
4,D131A,disrupting interaction strength
5,R20A,disrupting interaction strength
6,S25A;H26A,disrupting interaction strength
7,E128A,disrupting interaction strength
8,S25A,disrupting interaction strength

# Variants of: B1
# Conditions: with rps4_arath RPS4, Q9XGM3
# Remark: another data set of the same source
row,Variant,effect of a mutation on the interaction
1,H26A,disrupting interaction strength

# Variants of: B2
# Conditions: with wrk52_arath RRS1, P0DKH5
row,Variant,effect of a mutation on the interaction
1,S33A,disrupting interaction strength
2,K157A,disrupting interaction strength
3,R30E,disrupting interaction strength
4,R30A,disrupting interaction strength
5,R29A,disrupting interaction strength
6,S33A;H34A,disrupting interaction strength
7,E160A,disrupting interaction strength

# Variants of: B2
# Conditions: with wrk52_arath RRS1, P0DKH5
# Remark: another data set of the same source
row,Variant,effect of a mutation on the interaction
1,H34A,disrupting interaction strength
